# Source: the supplement of paper PMC11316812
# ± gives the standard deviation of the averaged measurements.
# Experiments:
# MCF7 = experiment: percentage of EdU-negative (G0-arrested) nuclei per well, 72 h; higher = more G0 arrest; conditions: reference: sequence is the full UniProt precursor, the tested protein was the secreted form or ectodomain
# hTERT-HMEC = experiment: as above; conditions: reference: sequence is the full UniProt precursor, the tested protein was the secreted form or ectodomain
# [1] = protein concentration 0.0334286 µM
# [2] = protein concentration 0.334286 µM
# [3] = protein concentration 0.0225 µM
# [4] = protein concentration 0.02525 µM
# [5] = protein concentration 0.2525 µM
# [6] = protein concentration 0.0257143 µM
# [7] = protein concentration 0.257143 µM
# [8] = protein concentration 0.0357143 µM
# [9] = protein concentration 0.357143 µM
# [10] = protein concentration 0.01475 µM
# [11] = protein concentration 0.1475 µM
# [12] = protein concentration 0.02117 µM
# [13] = protein concentration 0.2117 µM
# [14] = protein concentration 0.03125 µM
# [15] = protein concentration 0.3125 µM
# 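Note: secreted proteins added to cultured cells, EdU pulse at the end, nuclei found by Hoechst imaging, EdU status from nuclear versus surrounding ring intensity ratio, PBS as neutral control.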
sequence,measurement,setting,value
MKLDMTGDCTPVLVLMAAVLTVTGAVPVARLHGALPDARGCHIAQFKSLSPQELQAFKRAKDALEESLLLKDCRCHSRLFPRTWDLRQLQVRERPMALEAELALTLKVLEATADTDPALVDVLDQPLHTLHHILSQFRACIQPQPTAGPRTRGRLHHWLYRLQEAPKKESPGCLEASVTFNLFRLLTRDLNCVASGDLCV [Q8IZJ0],percentage of EdU-negative,MCF7; [1],22.9 ± 3.6%
same,percentage of EdU-negative,MCF7; [2],25.9 ± 4.6%
same,percentage of EdU-negative,hTERT-HMEC; [1],5.29 ± 0.59%
same,percentage of EdU-negative,hTERT-HMEC; [2],9.88 ± 1.6%
MMSFLLGAILTLLWAPTAQAEVLLQPDFNAEKFSGLWYVVSMASDCRVFLGKKDHLSMSTRAIRPTEEGGLHVHMEFPGADGCNQVDAEYLKVGSEGHFRVPALGYLDVRIVDTDYSSFAVLYIYKELEGALSTMVQLYSRTQDVSPQALKSFQDFYPTLGLPKDMMVMLPQSDACNPESKEAP [Q6UWW0],percentage of EdU-negative,MCF7; [3],26.2 ± 2.2%
same,percentage of EdU-negative,MCF7; protein concentration 0.225 µM,25.9 ± 0.71%
same,percentage of EdU-negative,hTERT-HMEC; [3],5.79 ± 0.094%
same,percentage of EdU-negative,hTERT-HMEC; protein concentration 0.225 µM,6.89 ± 0.15%
MPAGRAARTCALLALCLLGAGAQDFGPTRFICTSVPVDADMCAASVAAGGAEELRSSVLQLRETVLQQKETILSQKETIRELTAKLGRCESQSTLDPGAGEARAGGGRKQPGSGKNTMGDLSRTPAAETLSQLGQTLQSLKTRLENLEQYSRLNSSSQTNSLKDLLQSKIDELERQVLSRVNTLEEGKGGPRNDTEERVKIETALTSLHQRISELEKGQKDNRPGDKFQLTFPLRTNYMYAKVKKSLPEMYAFTVCMWLKSSATPGVGTPFSYAVPGQANELVLIEWGNNPMEILINDKVAKLPFVINDGKWHHICVTWTTRDGVWEAYQDGTQGGSGENLAPYHPIKPQGVLVLGQEQDTLGGGFDATQAFVGELAHFNIWDRKLTPGEVYNLATCSTKALSGNVIAWAESHIEIYGGATKWTFEACRQIN,percentage of EdU-negative,MCF7; [4],26.9 ± 2.1%
same,percentage of EdU-negative,MCF7; [5],24.2 ± 4.3%
same,percentage of EdU-negative,hTERT-HMEC; [4],5.12 ± 0.18%
same,percentage of EdU-negative,hTERT-HMEC; [5],4.43 ± 0.47%
MAQRCVCVLALVAMLLLVFPTVSRSMGPRSGEHQRASRIPSQFSKEERVAMKEALKGAIQIPTVTFSSEKSNTTALAEFGKYIHKVFPTVVSTSFIQHEVVEEYSHLFTIQGSDPSLQPYLLMAHFDVVPAPEEGWEVPPFSGLERDGIIYGRGTLDDKNSVMALLQALELLLIRKYIPRRSFFISLGHDEESSGTGAQRISALLQSRGVQLAFIVDEGGFILDDFIPNFKKPIALIAVSEKGSMNLMLQVNMTSGHSSAPPKETSIGILAAAVSRLEQTPMPIIFGSGTVVTVLQQLANEFPFPVNIILSNPWLFEPLISRFMERNPLTNAIIRTTTALTIFKAGVKFNVIPPVAQATVNFRIHPGQTVQEVLELTKNIVADNRVQFHVLSAFDPLPVSPSDDKALGYQLLRQTVQSVFPEVNITAPVTSIGNTDSRFFTNLTTGIYRFYPIYIQPEDFKRIHGVNEKISVQAYETQVKFIFELIQNADTDQEPVSHLHKL [Q6GTS8],percentage of EdU-negative,MCF7; [3],28 ± 2%
same,percentage of EdU-negative,MCF7; protein concentration 0.225 µM,24.4 ± 2.8%
same,percentage of EdU-negative,hTERT-HMEC; [3],4.69 ± 0.48%
same,percentage of EdU-negative,hTERT-HMEC; protein concentration 0.225 µM,5.33 ± 0.14%
MALPRCTWPNYVWRAVMACLVHRGLGAPLTLCMLGCLLQAGHVLSQKLDDVDPLVATNFGKIRGIKKELNNEILGPVIQFLGVPYAAPPTGERRFQPPEPPSPWSDIRNATQFAPVCPQNIIDGRLPEVMLPVWFTNNLDVVSSYVQDQSEDCLYLNIYVPTEDVKRISKECARKPGKKICRKGGPLTKKQTDDLGDNDGAEDEDIRDSGGPKPVMVYIHGGSYMEGTGNLYDGSVLASYGNVIVITVNYRLGVLGFLSTGDQAAKGNYGLLDLIQALRWTSENIGFFGGDPLRITVFGSGAGGSCVNLLTLSHYSEGNRWSNSTKGLFQRAIAQSGTALSSWAVSFQPAKYARMLATKVGCNVSDTVELVECLQKKPYKELVDQDIQPARYHIAFGPVIDGDVIPDDPQILMEQGEFLNYDIMLGVNQGEGLKFVENIVDSDDGISASDFDFAVSNFVDNLYGYPEGKDVLRETIKFMYTDWADRHNPETRRKTLLALFTDHQWVAPAVATADLHSNFGSPTYFYAFYHHCQTDQVPAWADAAHGDEVPYVLGIPMIGPTELFPCNFSKNDVMLSAVVMTYWTNFAKTGDPNQPVPQDTKFIHTKPNRFEEVAWTRYSQKDQLYLHIGLKPRVKEHYRANKVNLWLELVPHLHNLNDISQYTSTTTKVPSTDITFRPTRKNSVPVTSAFPTAKQDDPKQQPSPFSVDQRDYSTELSVTIAVGASLLFLNILAFAALYYKKDKRRHDVHRRCSPQRTTTNDLTHAQEEEIMSLQMKHTDLDHECESIHPHEVVLRTACPPDYTLAMRRSPDDVPLMTPNTITMIPNTIPGIQPLHTFNTFTGGQNNTLPHPHPHPHSHSTTRV [Q8N2Q7],percentage of EdU-negative,MCF7; [6],23.1 ± 1.3%
same,percentage of EdU-negative,MCF7; [7],22.8 ± 3.5%
same,percentage of EdU-negative,hTERT-HMEC; [6],4.75 ± 0.6%
same,percentage of EdU-negative,hTERT-HMEC; [7],5.43 ± 0.056%
MISPFLVLAIGTCLTNSLVPEKEKDPKYWRDQAQETLKYALELQKLNTNVAKNVIMFLGDGMGVSTVTAARILKGQLHHNPGEETRLEMDKFPFVALSKTYNTNAQVPDSAGTATAYLCGVKANEGTVGVSAATERSRCNTTQGNEVTSILRWAKDAGKSVGIVTTTRVNHATPSAAYAHSADRDWYSDNEMPPEALSQGCKDIAYQLMHNIRDIDVIMGGGRKYMYPKNKTDVEYESDEKARGTRLDGLDLVDTWKSFKPRYKHSHFIWNRTELLTLDPHNVDYLLGLFEPGDMQYELNRNNVTDPSLSEMVVVAIQILRKNPKGFFLLVEGGRIDHGHHEGKAKQALHEAVEMDRAIGQAGSLTSSEDTLTVVTADHSHVFTFGGYTPRGNSIFGLAPMLSDTDKKPFTAILYGNGPGYKVVGGERENVSMVDYAHNNYQAQSAVPLRHETHGGEDVAVFSKGPMAHLLHGVHEQNYVPHVMAYAACIGANLGHCAPASSAGSLAAGPLLLALALYPLSVLF,percentage of EdU-negative,MCF7; [3],26.1 ± 0.93%
same,percentage of EdU-negative,MCF7; protein concentration 0.225 µM,24.1 ± 2.4%
same,percentage of EdU-negative,hTERT-HMEC; [3],4.55 ± 0.2%
same,percentage of EdU-negative,hTERT-HMEC; protein concentration 0.225 µM,4.93 ± 0.7%
MARILLLFLPGLVAVCAVHGIFMDRLASKKLCADDECVYTISLASAQEDYNAPDCRFINVKKGQQIYVYSKLVKENGAGEFWAGSVYGDGQDEMGVVGYFPRNLVKEQRVYQEATKEVPTTDIDFFCE [Q9NRC9],percentage of EdU-negative,MCF7; [8],24.18 ± 0.24%
same,percentage of EdU-negative,MCF7; [9],27 ± 3.7%
same,percentage of EdU-negative,hTERT-HMEC; [8],5.05 ± 0.39%
same,percentage of EdU-negative,hTERT-HMEC; [9],5.74 ± 0.68%
MLLRLLLAWAAAGPTLGQDPWAAEPRAACGPSSCYALFPRRRTFLEAWRACRELGGDLATPRTPEEAQRVDSLVGAGPASRLLWIGLQRQARQCQLQRPLRGFTWTTGDQDTAFTNWAQPASGGPCPAQRCVALEASGEHRWLEGSCTLAVDGYLCQFGFEGACPALQDEAGQAGPAVYTTPFHLVSTEFEWLPFGSVAAVQCQAGRGASLLCVKQPEGGVGWSRAGPLCLGTGCSPDNGGCEHECVEEVDGHVSCRCTEGFRLAADGRSCEDPCAQAPCEQQCEPGGPQGYSCHCRLGFRPAEDDPHRCVDTDECQIAGVCQQMCVNYVGGFECYCSEGHELEADGISCSPAGAMGAQASQDLGDELLDDGEDEEDEDEAWKAFNGGWTEMPGILWMEPTQPPDFALAYRPSFPEDREPQIPYPEPTWPPPLSAPRVPYHSSVLSVTRPVVVSATHPTLPSAHQPPVIPATHPALSRDHQIPVIAANYPDLPSAYQPGILSVSHSAQPPAHQPPMISTKYPELFPAHQSPMFPDTRVAGTQTTTHLPGIPPNHAPLVTTLGAQLPPQAPDALVLRTQATQLPIIPTAQPSLTTTSRSPVSPAHQISVPAATQPAALPTLLPSQSPTNQTSPISPTHPHSKAPQIPREDGPSPKLALWLPSPAPTAAPTALGEAGLAEHSQRDDRWLLVALLVPTCVFLVVLLALGIVYCTRCGPHAPNKRITDCYRWVIHAGSKSPTEPMPPRGSLTGVQTCRTSV [Q9HCU0],percentage of EdU-negative,MCF7; [10],25.7 ± 2.5%
same,percentage of EdU-negative,MCF7; [11],27.5 ± 1.9%
same,percentage of EdU-negative,hTERT-HMEC; [10],4.69 ± 0.05%
same,percentage of EdU-negative,hTERT-HMEC; [11],6.87 ± 0.4%
MKLQCVSLWLLGTILILCSVDNHGLRRCLISTDMHHIEESFQEIKRAIQAKDTFPNVTILSTLETLQIIKPLDVCCVTKNLLAFYVDRVFKDHQEPNPKILRKISSIANSFLYMQKTLRQCQEQRQCHCRQEATNATRVIHDNYDQLEVHAAAIKSLGELDVFLAWINKNHEVMFSA [Q9UHD0],percentage of EdU-negative,MCF7; [8],24.3 ± 3%
same,percentage of EdU-negative,MCF7; [9],27.41 ± 0.059%
same,percentage of EdU-negative,hTERT-HMEC; [8],5.09 ± 0.068%
same,percentage of EdU-negative,hTERT-HMEC; [9],6.97 ± 1.1%
MGAAARLSAPRALVLWAALGAAAHIGPAPDPEDWWSYKDNLQGNFVPGPPFWGLVNAAWSLCAVGKRQSPVDVELKRVLYDPFLPPLRLSTGGEKLRGTLYNTGRHVSFLPAPRPVVNVSGGPLLYSHRLSELRLLFGARDGAGSEHQINHQGFSAEVQLIHFNQELYGNFSAASRGPNGLAILSLFVNVASTSNPFLSRLLNRDTITRISYKNDAYFLQDLSLELLFPESFGFITYQGSLSTPPCSETVTWILIDRALNITSLQMHSLRLLSQNPPSQIFQSLSGNSRPLQPLAHRALRGNRDPRHPERRCRGPNYRLHVDGVPHGR,percentage of EdU-negative,MCF7; protein concentration 0.021 µM,25.5 ± 1.3%
same,percentage of EdU-negative,MCF7; protein concentration 0.21 µM,24.9 ± 0.45%
same,percentage of EdU-negative,hTERT-HMEC; protein concentration 0.021 µM,4.83 ± 0.27%
same,percentage of EdU-negative,hTERT-HMEC; protein concentration 0.21 µM,7.53 ± 1.3%
MSPLLRRLLLAALLQLAPAQAPVSQPDAPGHQRKVVSWIDVYTRATCQPREVVVPLTVELMGTVAKQLVPSCVTVQRCGGCCPDDGLECVPTGQHQVRMQILMIRYPSSQLGEMSLEEHSQCECRPKKKDSAVKPDRAATPHHRPQPRSVPGWDSAPGAPSPADITHPTPAPGPSAHAAPSTTSALTPGPAAAAADAAASSVAKGGA,percentage of EdU-negative,MCF7; [12],25 ± 0.51%
same,percentage of EdU-negative,MCF7; [13],26.88 ± 0.25%
same,percentage of EdU-negative,hTERT-HMEC; [12],4.57 ± 0.19%
same,percentage of EdU-negative,hTERT-HMEC; [13],6.4 ± 1.3%
MRALVLLLSLFLLGGQAQHVSDWTYSEGALDEAHWPQHYPACGGQRQSPINLQRTKVRYNPSLKGLNMTGYETQAGEFPMVNNGHTVQISLPSTMRMTVADGTVYIAQQMHFHWGGASSEISGSEHTVDGIRHVIEIHIVHYNSKYKSYDIAQDAPDGLAVLAAFVEVKNYPENTYYSNFISHLANIKYPGQRTTLTGLDVQDMLPRNLQHYYTYHGSLTTPPCTENVHWFVLADFVKLSRTQVWKLENSLLDHRNKTIHNDYRRTQPLNHRVVESNFPNQEYTLGSEFQFYLHKIEEILDYLRRALN,percentage of EdU-negative,MCF7; [14],24.6 ± 1.3%
same,percentage of EdU-negative,MCF7; [15],23.7 ± 0.28%
same,percentage of EdU-negative,hTERT-HMEC; [14],5.04 ± 0.54%
same,percentage of EdU-negative,hTERT-HMEC; [15],4.6 ± 0.89%
